The target of test [1] is LY6A (C57BL/6J allele), expressed from Ly6a cDNA in HEK293T cells (mouse (C57BL/6J)) (UniProt P05533). Briefly: bound vector genome assay (qPCR of viral genomes on cells); HEK293T cells transfected with Ly6 cDNA or left untransfected; 48 h later chilled to 4°C, recombinant AAV at 10^5 vg/cell for one hour, washed three times with cold PBS; vector genomes normalized to cell genomes. For orientation: In qPCR the cycle at which signal appears reflects the starting amount.

The target in test [2] is LY6A, endogenous on primary brain microvascular endothelial cells of C57BL/6 mice (mouse (endogenous in C57BL/6 BMVECs)) (UniProt P05533). Kind of test: bound vector genome assay (qPCR of viral genomes on cells); primary BMVECs of C57BL/6 mice treated with SaCas9 vectors with sgRNAs against Ly6a or Ly6c1 or no sgRNA; 4°C, one hour, AAV at 10^6 vg/cell; normalized to cells treated with a vector lacking a sgRNA.

For “AAV-PHP.B capsid (engineered AAV9 variant) (from UniProt Q6JC40 1-736; Q6JC40 1-736; Q6JC40 1-736) (complex)”, the fold increase in binding to cells on Ly6a expression in test [1] is over 50 fold.
“AAV-PHP.eB capsid (engineered AAV9 variant, further evolved from AAV-PHP.B) (from UniProt Q6JC40 1-736; Q6JC40 1-736; Q6JC40 1-736) (complex)” gave a reduction in binding to BMVECs on Ly6a disruption (~50% reduction of LY6A) in test [2] of 50%. Besides, the fold increase in binding to cells on Ly6a expression in test [1] was over 50 fold.

For the origin of these results see paper PMC6855452.
